From US20260274985A1 (MYTHIC THERAPEUTICS, published 2026)

B1: MYT13189 (antibody, V domains shown)
VH: QVQLQQSGSELKKPGASVKVSCKASGYTFTNYGMNWVKQAPGQGLKWMGWINTYTGEPTYTDDHKGRFAFSLDTSVSTAYLQISSLKADDTAVYFCARGGFGSSYWYFDVWGQGSLVTVSS
VL: DIQLTQSPSSLSASVGDRVSITCKASQDVSIAVAWYQQKPGKAPKLLIYSAHYRYTGVPDRFSGSGSGTDFTLTISSLQPEDFAVYYCQQHYITPLTFGAGTKVEIK
notes: Sacituzumab HC-LC pairing variant; IgG
B2: MYT13200 (antibody, V domains shown)
VH: QVQLQQSGSELKKPGASVKVSCKASGYTFTNHGMNWVKQAPGQGLKWMGWINTYTGEPTYTDDFKGRFAFSLDTSVSTAYLQISSLKADDTAVYFCARGGFGSSYWYFDVWGQGSLVTVSS
VL: DIQLTQSPSSLSASVGDRVSITCKASQDVSIAVAWYQQKPGKAPKLLIYSASYRYTGVPDRFSGSGSGTDFTLTISSLQPEDFAVYYCHQHYITPLTFGAGTKVEIK
notes: as for B1
B3: MYT12299 (antibody, V domains shown)
VH: QVQLQQSGSELKKPGASVKVSCKASGYTFTNHGMNWVKQAPGQGLKWMGWINTYTGEPTYTDDFHGRFAFSLDTSVSTAYLQISSLKADDTAVYFCARGGFGSSYWYFDVWGQGSLVTVSS
VL: DIQLTQSPSSLSASVGDRVSITCKASQDVSIAVAWYQQKPGKAPKLLIYSASYRYTGVPDRFSGSGSGTDFTLTISSLQPEDFAVYYCQQHYITPLTFGAGTKVEIK
notes: sacituzumab VH 32, 65 -> H
B4: MYT12300 (antibody, V domains shown)
VH: QVQLQQSGSELKKPGASVKVSCKASGYTFTNHGMNWVKQAPGQGLKWMGWINTYTGEPTYTDDFKHRFAFSLDTSVSTAYLQISSLKADDTAVYFCARGGFGSSYWYFDVWGQGSLVTVSS
VL: DIQLTQSPSSLSASVGDRVSITCKASQDVSIAVAWYQQKPGKAPKLLIYSASYRYTGVPDRFSGSGSGTDFTLTISSLQPEDFAVYYCQQHYITPLTFGAGTKVEIK
notes: sacituzumab VH 32, 66 -> H
B5: MYT12309 (antibody, V domains shown)
VH: QVQLQQSGSELKKPGASVKVSCKASGYTFTNYGMNWVKQAPGQGLKWMGWINTYTGEPTHTDDHKGRFAFSLDTSVSTAYLQISSLKADDTAVYFCARGGFGSSYWYFDVWGQGSLVTVSS
VL: DIQLTQSPSSLSASVGDRVSITCKASQDVSIAVAWYQQKPGKAPKLLIYSASYRYTGVPDRFSGSGSGTDFTLTISSLQPEDFAVYYCQQHYITPLTFGAGTKVEIK
notes: sacituzumab VH 60, 64 -> H
B6: MYT12314 (antibody, V domains shown)
VH: QVQLQQSGSELKKPGASVKVSCKASGYTFTNYGMNWVKQAPGQGLKWMGWINTYTGEPTYTHDFHGRFAFSLDTSVSTAYLQISSLKADDTAVYFCARGGFGSSYWYFDVWGQGSLVTVSS
VL: DIQLTQSPSSLSASVGDRVSITCKASQDVSIAVAWYQQKPGKAPKLLIYSASYRYTGVPDRFSGSGSGTDFTLTISSLQPEDFAVYYCQQHYITPLTFGAGTKVEIK
notes: sacituzumab VH 62, 65 -> H
B7: MYT12304 (antibody, V domains shown)
VH: QVQLQQSGSELKKPGASVKVSCKASGYTFTNYHMNWVKQAPGQGLKWMGWINTYTGEPTYTDDHKGRFAFSLDTSVSTAYLQISSLKADDTAVYFCARGGFGSSYWYFDVWGQGSLVTVSS
VL: DIQLTQSPSSLSASVGDRVSITCKASQDVSIAVAWYQQKPGKAPKLLIYSASYRYTGVPDRFSGSGSGTDFTLTISSLQPEDFAVYYCQQHYITPLTFGAGTKVEIK
notes: sacituzumab VH 33, 64 -> H
B8: MYT12315 (antibody, V domains shown)
VH: QVQLQQSGSELKKPGASVKVSCKASGYTFTNYGMNWVKQAPGQGLKWMGWINTYTGEPTYTHDFKHRFAFSLDTSVSTAYLQISSLKADDTAVYFCARGGFGSSYWYFDVWGQGSLVTVSS
VL: DIQLTQSPSSLSASVGDRVSITCKASQDVSIAVAWYQQKPGKAPKLLIYSASYRYTGVPDRFSGSGSGTDFTLTISSLQPEDFAVYYCQQHYITPLTFGAGTKVEIK
notes: sacituzumab VH 62, 66 -> H
B9: MYT12311 (antibody, V domains shown)
VH: QVQLQQSGSELKKPGASVKVSCKASGYTFTNYGMNWVKQAPGQGLKWMGWINTYTGEPTHTDDFKHRFAFSLDTSVSTAYLQISSLKADDTAVYFCARGGFGSSYWYFDVWGQGSLVTVSS
VL: DIQLTQSPSSLSASVGDRVSITCKASQDVSIAVAWYQQKPGKAPKLLIYSASYRYTGVPDRFSGSGSGTDFTLTISSLQPEDFAVYYCQQHYITPLTFGAGTKVEIK
notes: sacituzumab VH 60, 66 -> H
B10: MYT12316 (antibody, V domains shown)
VH: QVQLQQSGSELKKPGASVKVSCKASGYTFTNYGMNWVKQAPGQGLKWMGWINTYTGEPTYTDHHKGRFAFSLDTSVSTAYLQISSLKADDTAVYFCARGGFGSSYWYFDVWGQGSLVTVSS
VL: DIQLTQSPSSLSASVGDRVSITCKASQDVSIAVAWYQQKPGKAPKLLIYSASYRYTGVPDRFSGSGSGTDFTLTISSLQPEDFAVYYCQQHYITPLTFGAGTKVEIK
notes: sacituzumab VH 63, 64 -> H
B11: MYT12307 (antibody, V domains shown)
VH: QVQLQQSGSELKKPGASVKVSCKASGYTFTNYGMNWVKQAPGQGLKWMGWINTYTGEPTHTHDFKGRFAFSLDTSVSTAYLQISSLKADDTAVYFCARGGFGSSYWYFDVWGQGSLVTVSS
VL: DIQLTQSPSSLSASVGDRVSITCKASQDVSIAVAWYQQKPGKAPKLLIYSASYRYTGVPDRFSGSGSGTDFTLTISSLQPEDFAVYYCQQHYITPLTFGAGTKVEIK
notes: sacituzumab VH 60, 62 -> H
B12: MYT12301 (antibody, V domains shown)
VH: QVQLQQSGSELKKPGASVKVSCKASGYTFTNYHMNWVKQAPGQGLKWMGWINTYTGEPTHTDDFKGRFAFSLDTSVSTAYLQISSLKADDTAVYFCARGGFGSSYWYFDVWGQGSLVTVSS
VL: DIQLTQSPSSLSASVGDRVSITCKASQDVSIAVAWYQQKPGKAPKLLIYSASYRYTGVPDRFSGSGSGTDFTLTISSLQPEDFAVYYCQQHYITPLTFGAGTKVEIK
notes: sacituzumab VH 33, 60 -> H
B13: MYT12303 (antibody, V domains shown)
VH: QVQLQQSGSELKKPGASVKVSCKASGYTFTNYHMNWVKQAPGQGLKWMGWINTYTGEPTYTDHFKGRFAFSLDTSVSTAYLQISSLKADDTAVYFCARGGFGSSYWYFDVWGQGSLVTVSS
VL: DIQLTQSPSSLSASVGDRVSITCKASQDVSIAVAWYQQKPGKAPKLLIYSASYRYTGVPDRFSGSGSGTDFTLTISSLQPEDFAVYYCQQHYITPLTFGAGTKVEIK
notes: sacituzumab VH 33, 63 -> H
B14: MYT12324 (antibody, V domains shown)
VH: QVQLQQSGSELKKPGASVKVSCKASGYTFTNYHMNWVKQAPGQGLKWMGWINTYTGEPTHTDDFKHRFAFSLDTSVSTAYLQISSLKADDTAVYFCARGGFGSSYWYFDVWGQGSLVTVSS
VL: DIQLTQSPSSLSASVGDRVSITCKASQDVSIAVAWYQQKPGKAPKLLIYSASYRYTGVPDRFSGSGSGTDFTLTISSLQPEDFAVYYCQQHYITPLTFGAGTKVEIK
notes: sacituzumab VH 33, 60, 66 -> H
B15: MYT12313 (antibody, V domains shown)
VH: QVQLQQSGSELKKPGASVKVSCKASGYTFTNYGMNWVKQAPGQGLKWMGWINTYTGEPTYTHDHKGRFAFSLDTSVSTAYLQISSLKADDTAVYFCARGGFGSSYWYFDVWGQGSLVTVSS
VL: DIQLTQSPSSLSASVGDRVSITCKASQDVSIAVAWYQQKPGKAPKLLIYSASYRYTGVPDRFSGSGSGTDFTLTISSLQPEDFAVYYCQQHYITPLTFGAGTKVEIK
notes: sacituzumab VH 62, 64 -> H
B16: MYT12305 (antibody, V domains shown)
VH: QVQLQQSGSELKKPGASVKVSCKASGYTFTNYHMNWVKQAPGQGLKWMGWINTYTGEPTYTDDFHGRFAFSLDTSVSTAYLQISSLKADDTAVYFCARGGFGSSYWYFDVWGQGSLVTVSS
VL: DIQLTQSPSSLSASVGDRVSITCKASQDVSIAVAWYQQKPGKAPKLLIYSASYRYTGVPDRFSGSGSGTDFTLTISSLQPEDFAVYYCQQHYITPLTFGAGTKVEIK
notes: sacituzumab VH 33, 65 -> H
B17: MYT12312 (antibody, V domains shown)
VH: QVQLQQSGSELKKPGASVKVSCKASGYTFTNYGMNWVKQAPGQGLKWMGWINTYTGEPTYTHHFKGRFAFSLDTSVSTAYLQISSLKADDTAVYFCARGGFGSSYWYFDVWGQGSLVTVSS
VL: DIQLTQSPSSLSASVGDRVSITCKASQDVSIAVAWYQQKPGKAPKLLIYSASYRYTGVPDRFSGSGSGTDFTLTISSLQPEDFAVYYCQQHYITPLTFGAGTKVEIK
notes: sacituzumab VH 62, 63 -> H
B18: MYT12325 (antibody, V domains shown)
VH: QVQLQQSGSELKKPGASVKVSCKASGYTFTNYHMNWVKQAPGQGLKWMGWINTYTGEPTYTDDHHGRFAFSLDTSVSTAYLQISSLKADDTAVYFCARGGFGSSYWYFDVWGQGSLVTVSS
VL: DIQLTQSPSSLSASVGDRVSITCKASQDVSIAVAWYQQKPGKAPKLLIYSASYRYTGVPDRFSGSGSGTDFTLTISSLQPEDFAVYYCQQHYITPLTFGAGTKVEIK
notes: sacituzumab VH 33, 64, 65 -> H
B19: MYT12326 (antibody, V domains shown)
VH: QVQLQQSGSELKKPGASVKVSCKASGYTFTNYHMNWVKQAPGQGLKWMGWINTYTGEPTYTDDHKHRFAFSLDTSVSTAYLQISSLKADDTAVYFCARGGFGSSYWYFDVWGQGSLVTVSS
VL: DIQLTQSPSSLSASVGDRVSITCKASQDVSIAVAWYQQKPGKAPKLLIYSASYRYTGVPDRFSGSGSGTDFTLTISSLQPEDFAVYYCQQHYITPLTFGAGTKVEIK
notes: sacituzumab VH 33, 64, 66 -> H
B20: MYT12308 (antibody, V domains shown)
VH: QVQLQQSGSELKKPGASVKVSCKASGYTFTNYGMNWVKQAPGQGLKWMGWINTYTGEPTHTDHFKGRFAFSLDTSVSTAYLQISSLKADDTAVYFCARGGFGSSYWYFDVWGQGSLVTVSS
VL: DIQLTQSPSSLSASVGDRVSITCKASQDVSIAVAWYQQKPGKAPKLLIYSASYRYTGVPDRFSGSGSGTDFTLTISSLQPEDFAVYYCQQHYITPLTFGAGTKVEIK
notes: sacituzumab VH 60, 63 -> H

These binders were tested against T1, Human TROP2 Protein, His Tag (Acro Biosystems) (human, UniProt P09758 27-274) (assay: BLI (Octet)).
T1 construct: Soluble analyte of the Octet assay; also called TACSTD2; not shown: His tag
T1 sequence (looked up): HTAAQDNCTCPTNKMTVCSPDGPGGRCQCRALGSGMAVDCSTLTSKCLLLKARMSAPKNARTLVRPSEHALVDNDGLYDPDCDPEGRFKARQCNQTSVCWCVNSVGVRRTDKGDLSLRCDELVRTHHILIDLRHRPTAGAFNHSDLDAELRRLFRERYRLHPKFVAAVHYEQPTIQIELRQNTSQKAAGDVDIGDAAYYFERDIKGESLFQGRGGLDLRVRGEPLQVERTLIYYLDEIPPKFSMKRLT

Binding result, binds:
B1, B2

These binders were tested against T2, Human TROP2 Protein, His Tag (Acro Biosystems) (human, UniProt P09758 27-274) (assay: BLI (Octet) [1/2]).
T2 construct: not shown: His tag
T2 sequence (looked up): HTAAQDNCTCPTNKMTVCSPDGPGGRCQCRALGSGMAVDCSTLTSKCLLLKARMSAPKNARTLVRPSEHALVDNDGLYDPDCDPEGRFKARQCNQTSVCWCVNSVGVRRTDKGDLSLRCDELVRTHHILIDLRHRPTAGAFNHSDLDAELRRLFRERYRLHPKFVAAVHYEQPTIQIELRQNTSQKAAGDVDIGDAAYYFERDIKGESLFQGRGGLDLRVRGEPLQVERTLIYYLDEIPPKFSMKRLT

Binding result, binds:
B3, B4, B5, B6, B7, B8, B9, B10, B11, B12, B13, B14, B15, B16, B17, B18, B19, B20
